Assay results as given in patent US20170081378A1 (INDIANA UNIVERSITY RESEARCH AND TECHNOLOGY, published 2017).
Where no end group is shown, it is not given here.

T1: fLL-37 (LL-37 with 5' carboxyfluorescein coupled to the N-terminus) (human, 5' carboxyfluorescein coupled to the N-terminus)
T1 construct: Custom synthesized labelled peptide (AnaSpec), used at 0.1 uM in the fluorescence polarization assay; also called fluorescein-labeled LL-37
T1 peptide: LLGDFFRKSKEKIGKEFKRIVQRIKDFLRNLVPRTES


Tests used:
fLL-37 (LL-37 with 5' …) [1] = target: T1, fLL-37 (LL-37 with 5' …); assay: fluorescence polarization, fLL-37 0.1 uM, peptide titrated 1-1000 nM, phosphate buffer pH 7.0
[2] = target: fLL-37 (LL-37 with 5' carboxyfluorescein coupled to the N-terminus) (human); assay: as above
fLL-37 (LL-37 with 5' …) [3] = target: T1, fLL-37 (LL-37 with 5' …); assay: FRET between fLL-37 and rLL-37 (1:1) in endosomes of BEAS-2B cells, confocal microscopy
Experimental: FIG. 3. Oligomerization of LL-37 depends upon pH. A) LL-37 forms particles that are micrometers in hydrodynamic radii at neutral pH and the particles dissociate when the pH is decreased. All assays were performed with LL-37 at a concentration of 1 ᵢlM in phosphate buffer. […] C) LL-37 particles will dissociate in the presence of salt. The hydrodynamic radius of ˜1 μM LL-37 was determined in a pH 7.4 phosphate buffer adjusted to contain the concentration of NaCl indicated. D) fLL37 and rLL-37 colocalize in endosomes of BEAS-2B cells. fLL-37, rLL-37, and poly(I:C) were added to BEAS-2B cells that were either mock-treated or treated with ammonium chloride and imaged 60 min later by excitation at 488 nm or at 561 nm. The micrograph images were then merged to show the co-localization of the two fluorescent peptides. E) Co-localization of fLL-37 and rLL-37 in BEAS-2B cells was quantified in the absence or presence of endosomal acidification inhibitors. To detect both peptides, the cells were excited with 488 and 561 nm laser. To determine FRET between the two peptides, the cells were excited at only 488 nm laser, which activates fluorescence of fLL-37 and the emissions for both fluorescein and rhodamine were determined. The data shown were quantified from 20 independent cells from three independently prepared samples. The p values were calculated by using the Student t-test. […]

fLL-37 (LL-37 with 5' …) [4] = target: T1, fLL-37 (LL-37 with 5' …); assay: fluorescence polarization (FIG. 11)

| fold change in the fluorescence anisotropy values of f-LL-37 between 1.0 nM and 1000 nM of added peptide (fLL-37 (LL-37 with 5' …) [1]) | Binder | further results |
| --- | --- | --- |
| 6.2 fold | LLGDFFRKSKEKIGKEFKRIVQRIKDFLR (N-terminal 29 residues of LL-37 (lacks the C-terminal 8 residues)) [LL-29] |  |
|  | SKEKIGKEFKRIVQRIKDFLR [LL9-29] | fold change in the fluorescence anisotropy values of f-LL-37 between 1.0 nM and 1000 nM of added peptide [2]: 2.6 fold |
|  | LLGDFFRKSKEKIGKEFKRIVQRIKDFLRNLVPRTES (also: rhodamine label, position not given here) [rhodamine-labeled LL-37 (rLL-37)] | binding result (fLL-37 (LL-37 with 5' …) [3]): binds |
| 5 fold | LLGDFFRKSKEKIGKEFKRIVQRIKDFLRKLVPQPEQ (LL-37 with the C-terminal four residues replaced with those from mCRAMP) [Peptide A] |  |
| 6 fold | LLGDFFRKSKEKIGKEFKRIVQRIKDFLRNLVPRTES (Unlabelled synthetic 37-residue peptide; also called WT LL-37; native LL-37) [LL-37] |  |
| 2.6 fold | GLLRKGGEKIGEKLKKIGQKIKNFFQKLVPQPEQ (also called mouse peptide) [mCRAMP (murine ortholog of LL-37)] |  |
|  | SKEKIGKEFKRIVQRIKDFLRNLVPRTES [LL8-37] | binding result (fLL-37 (LL-37 with 5' …) [4]): binds |
